Target: synthetic peptide representing amino acids 24 through 39 of FXYD5 (Seq ID No. 1), coupled to maleimide activated BSA (Homo sapiens)
Experiment: chemiluminescent ELISA, BSA-coupled peptide 24-39 coated, streptavidin-HRP detection; printed as relative binding affinity

EC50 [nM]	Substance
3.75	N20-linker-biotin conjugate (goat polyclonal anti-FXYD5 N20, sc-30602, coupled via SM(PEG)24 to biotin) (antibody)
38.2	L15-linker-biotin conjugate (goat polyclonal anti-FXYD5 L15, sc-30603, coupled via SM(PEG)24 to biotin) (antibody)

— patent US20190248887A1
